Results published in patent publication US20240110201A1 (SPARK THERAPEUTICS, published 2024).

Molecular target: T1, C1-esterase (reagent of the Technochrom C1-INH kit, Diapharma 5345003) (human, UniProt P09871 16-688, limits assumed)
T1 sequence (looked up): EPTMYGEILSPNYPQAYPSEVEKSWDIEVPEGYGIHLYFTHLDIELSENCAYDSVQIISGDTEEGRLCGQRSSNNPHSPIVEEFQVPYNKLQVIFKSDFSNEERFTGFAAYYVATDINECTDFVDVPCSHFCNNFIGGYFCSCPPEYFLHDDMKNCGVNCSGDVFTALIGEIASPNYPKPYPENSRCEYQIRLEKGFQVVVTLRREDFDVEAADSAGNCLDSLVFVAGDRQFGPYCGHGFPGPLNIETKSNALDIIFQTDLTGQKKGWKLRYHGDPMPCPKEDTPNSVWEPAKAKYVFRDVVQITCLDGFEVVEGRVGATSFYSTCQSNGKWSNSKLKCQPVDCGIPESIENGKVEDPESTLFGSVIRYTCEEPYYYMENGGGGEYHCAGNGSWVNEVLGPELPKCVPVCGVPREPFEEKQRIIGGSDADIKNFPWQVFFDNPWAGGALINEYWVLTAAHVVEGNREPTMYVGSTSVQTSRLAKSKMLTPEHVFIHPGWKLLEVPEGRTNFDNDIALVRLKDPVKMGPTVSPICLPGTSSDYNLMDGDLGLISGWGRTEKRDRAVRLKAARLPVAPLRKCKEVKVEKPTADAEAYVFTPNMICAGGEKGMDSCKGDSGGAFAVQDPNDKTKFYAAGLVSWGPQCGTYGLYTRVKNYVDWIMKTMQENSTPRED
Test: cell-based or functional assay

B1: human C1 inhibitor (transgene product secreted into plasma after administration of AAV-encapsidated SERPING1 expression cassettes) (other)
chain: NPNATSSSSQDPESLQDRGEGKVATTVISKMLFVEPILEVSSLPTTNSTTNSATKITANTTDEPTTQPTTEPTTQPTIQPTQPTTQLPTDSPTQPTTGSFCPGPVTLCSDLESHSTEAVLGDALVDFSLKLYHAFSAMKKVETNMAFSPFSIASLLTQVLLGAGENTKTNLESILSYPKDFTCVHQALKGFTTKGVTSVSQIFHSPDLAIRDTFVNASRTLYSSSPRVLSNNSDANLELINTWVAKNTNNKISRLLDSLPSDTRLVLLNAIYLSAKWKTTFDPKKTRMEPFHFKNSVIKVPMMNSKKYPVAHFIDQTLKAKVGQLQLSHNLSLVILVPQNLKHRLEDMEQALSPSVFKAIMEKLEMSKFQPTLLTLPRIKVTTSQDMLSIMEKLEFFDFSYDLNLCGLTEDPDLQVSAMQHQTVLELTETGVEAAAASAISVARTLLVFEVQQPFLFVLWDQQHKFPVFMGRVYDPRA
- C1-INH activity, chromogenic assay of residual C1-esterase activity, reported as percentage of activity relative to a coagulation reference standard: 766 % activity
